# Data: patent US20210371503A1
# B1: MnC4t1p1_A10 (antibody, V domains shown)
# VH: QLQVQESGPGLVKPSETLSLTCTVSGASISSNHYFWGWIRQPPGKGLAWIGSMHYSGSTYYNPSLKSRVTISVDTSKNQLSLKLSSVTAADTAVYYCARGVNYYDRNGYYRNDGFDIRGQGTMVTVSS
# VL: DIQMTQSPSSLSASVGDRVTITCRASQGIRNDLGWYEQKPGKAPKRLIYAASSLESGVPSRFSGSGSGTEFTLTISSLQPEDFATYYCLQHNTYPFTFGPGTRVDIK
# B2: MnC4t2p1_F5 (antibody, V domains shown)
# VH: B1 VH
# VL: B1 VL
# B3: MnC4t2p1_D10 (antibody, V domains shown)
# VH: B1 VH
# VL: B1 VL
# Molecular target: monomeric (SARS-CoV-2 S ectodomain monomer) (SARS-CoV-2)
# Assay: ELISA, coated monomeric S ectodomain [cont'd]
row,Binder,EC50 [µg/mL]
1,B1,< 100
2,B2,< 100
3,B3,< 100
